Article PMC4227783

Biological target: T1, TbTRF Myb domain (Trypanosoma brucei, UniProt Q4VHG6 281-382)
T1 sequence: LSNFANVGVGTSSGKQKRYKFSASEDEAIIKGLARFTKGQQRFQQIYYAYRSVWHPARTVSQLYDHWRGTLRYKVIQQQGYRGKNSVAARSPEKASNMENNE
Experiment: ITC

B1: regular 13-mer telomeric oligo (dsDNA)
DNA 1: GGTTAGGGTTAGG
DNA 2: CCTAACCCTAACC
- binding result: binds
